Measurements as given in the Human Domainome abundance scans (Beltran et al. 2025).
± gives the uncertainty stated by the source.

B1: POU domain, class 4, transcription factor 1, residues 266 to 347; numbered along this chain, Q01851 (parent)
chain: RELEAFAERFKQRRIKLGVTQADVGSALANLKIPGVGSLSQSTICRFESLTLSHNNMIALKPILQAWLEEAEGAQREKMNKP

Variants of: B1
Assay: abundance fitness (aPCA) (normalised: wild type 0, dead -1); higher = more abundant; growth selection in yeast, the domain comes from the species named
Settings: Homo sapiens

Abundance fitness: each site, then its substitutions
R9: Y -0.035 ± 0.19; E -0.019 ± 0.064; L 0.061 ± 0.05; Q -0.043 ± 0.1; H -0.003 ± 0.14; K -0.143 ± 0.16; I -0.004 ± 0.29; N 0.012 ± 0.12; M 0.005 ± 0.12; G -0.015 ± 0.041; W -0.154 ± 0.062; T 0.058 ± 0.12; D -0.122 ± 0.23; F -0.178 ± 0.13; V -0.047 ± 0.065; C -0.007 ± 0.15
E4: W -0.057 ± 0.049; F -0.054 ± 0.08; P -0.361 ± 0.078; C -0.149 ± 0.079; Y -0.153 ± 0.13; K 0.056 ± 0.063; A -0.071 ± 0.048; G -0.166 ± 0.034; Q -0.035 ± 0.059; D -0.031 ± 0.059; H 0.108 ± 0.079; L -0.134 ± 0.045; T -0.031 ± 0.053; N -0.086 ± 0.097; R -0.065 ± 0.034; I 0.107 ± 0.08; S -0.091 ± 0.046; M 0.04 ± 0.064
Q12: N 0.031 ± 0.042; I -0.144 ± 0.056; K -0.029 ± 0.039; D -0.027 ± 0.047; V -0.117 ± 0.03; G -0.205 ± 0.029; E 0.015 ± 0.037; H -0.097 ± 0.042; C -0.466 ± 0.053; L -0.078 ± 0.027; Y -0.13 ± 0.047; M -0.034 ± 0.039; F -0.133 ± 0.044; W -0.339 ± 0.037; P -0.896 ± 0.079; R -0.14 ± 0.028; T -0.021 ± 0.031; S -0.06 ± 0.03; A -0.004 ± 0.03
R1: G -0.05 ± 0.023; F 0.028 ± 0.12; N 0.02 ± 0.05; Y -0.076 ± 0.085; M 0.004 ± 0.045; I 0.039 ± 0.067; W -0.134 ± 0.033; H -0.326 ± 0.18; T -0.011 ± 0.04; E 0.007 ± 0.052; C -0.053 ± 0.038; Q -0.325 ± 0.17; L -0.084 ± 0.059; V -0.09 ± 0.038; S -0.026 ± 0.033; A -0.132 ± 0.042; D 0.008 ± 0.066
E8: T -0.078 ± 0.094; Y -0.017 ± 0.19; C -0.238 ± 0.12; D -0.13 ± 0.16; P -0.749 ± 0.2; L 0.018 ± 0.066; N 0.063 ± 0.091; A -0.008 ± 0.063; W -0.284 ± 0.078; I -0.234 ± 0.12; S 0.014 ± 0.071; Q -0.019 ± 0.1; G -0.048 ± 0.045; F -0.223 ± 0.12; V 0.015 ± 0.057; H -0.164 ± 0.22; M -0.069 ± 0.089; R -0.002 ± 0.046
A5: S -0.005 ± 0.073; H -0.063 ± 0.099; Y -0.171 ± 0.11; Q 0.047 ± 0.062; R 0.006 ± 0.037; L 0.037 ± 0.044; T -0.065 ± 0.059; M 0.016 ± 0.074; K 0.042 ± 0.087; V -0.06 ± 0.039; N 0.106 ± 0.16; F 0.042 ± 0.089; G -0.039 ± 0.036; C -0.162 ± 0.099; D -0.043 ± 0.085; P -0.451 ± 0.1; I 0.184 ± 0.14
A7: M -0.395 ± 0.042; H -0.668 ± 0.078; Y -0.708 ± 0.088; V 0.007 ± 0.025; S -0.203 ± 0.028; L -0.656 ± 0.037; Q -0.712 ± 0.056; R -0.594 ± 0.028; F -0.721 ± 0.069; E -0.884 ± 0.058; P -0.525 ± 0.041; G -0.594 ± 0.028; D -1.11 ± 0.14; T -0.138 ± 0.033; C -0.018 ± 0.037; K -0.489 ± 0.04; N -0.582 ± 0.078
I15: A -0.099 ± 0.038; F -0.322 ± 0.039; G -0.286 ± 0.055; C -0.048 ± 0.049; E 0.02 ± 0.054; D -0.211 ± 0.06
R14: D -0.952 ± 0.18; G -1.07 ± 0.081; S -0.906 ± 0.059; W -1.02 ± 0.098; H -1.16 ± 0.14; V -0.932 ± 0.062; N -0.923 ± 0.12; M -0.914 ± 0.092; Y -0.884 ± 0.098; K -1.09 ± 0.14; L -0.768 ± 0.045; Q -1.08 ± 0.12; F -1.07 ± 0.12; P -1.13 ± 0.12; A -0.919 ± 0.071; I -0.866 ± 0.082
F10: C -0.867 ± 0.071; W -0.237 ± 0.029; G -0.897 ± 0.035; N -0.822 ± 0.093; H -0.92 ± 0.12; M -0.56 ± 0.044; A -0.762 ± 0.038; Y -0.599 ± 0.064; T -0.853 ± 0.073; L -0.515 ± 0.031; R -0.996 ± 0.044; S -0.914 ± 0.055; Q -1.04 ± 0.09; P -0.908 ± 0.08; D -0.804 ± 0.076; E -0.916 ± 0.053; K -0.9 ± 0.079; I -0.676 ± 0.065
E2: W -0.508 ± 0.038; T -0.195 ± 0.039; G -0.102 ± 0.023; S -0.139 ± 0.03; M -0.17 ± 0.036
